In patent publication EP3176583A2 (TLA Targeted Immunotherapies AB, dated 2017):
Bridge positions count the residues as written; N and C are the ends. Square brackets hold non-standard residues; d marks the D form. Side chains are listed from the residue outwards. * marks the point of attachment. Biotin = O=C1N[C@H]2[C@H](CS[C@H]2CCCCC(=O)*)N1; pGlu = O=C1CC[C@@H](C(=O)O)N1; Nle = CCCC[C@H](N)C(=O)O; AEEA = NCCOCCOCC(=O)O

B1: TECK-Biotin-Nle (truncated human TECK/CCL25, residues 1-74 of the mature protein, Met to Nleu substitution, derivatised at Lys72 with PEG-Biotin) (ligand)
chain: [pGlu]GVFEDCCLAYHYPIGWAVLRRAWTYRIQEVSGSCNLPAAIFYLPKRHRKVCGNPKSREVQRA[Nle]KLLDARNK([AEEA-Biotin])VF
modifications: disulfide 7-35, 8-52; also: TFA salt

Tests used:
[1] = target: hCCR7 (human) (UniProt P32248); assay: cell-based or functional assay
[2] = target: T1, hCCR9 (human, UniProt P51686 1-369); assay: cell-based or functional assay
T1 sequence (looked up): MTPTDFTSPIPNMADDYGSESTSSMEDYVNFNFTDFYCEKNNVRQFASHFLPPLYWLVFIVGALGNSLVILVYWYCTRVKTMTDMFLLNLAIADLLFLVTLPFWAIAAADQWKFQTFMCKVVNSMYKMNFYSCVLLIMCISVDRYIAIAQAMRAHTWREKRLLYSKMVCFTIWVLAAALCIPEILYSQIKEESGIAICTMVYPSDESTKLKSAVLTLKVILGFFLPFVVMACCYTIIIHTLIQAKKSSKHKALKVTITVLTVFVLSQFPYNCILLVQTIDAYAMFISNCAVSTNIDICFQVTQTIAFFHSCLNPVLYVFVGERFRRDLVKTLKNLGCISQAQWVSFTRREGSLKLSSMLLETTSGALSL

hCCR7 (human), sequence (P32248 25-378 limits assumed): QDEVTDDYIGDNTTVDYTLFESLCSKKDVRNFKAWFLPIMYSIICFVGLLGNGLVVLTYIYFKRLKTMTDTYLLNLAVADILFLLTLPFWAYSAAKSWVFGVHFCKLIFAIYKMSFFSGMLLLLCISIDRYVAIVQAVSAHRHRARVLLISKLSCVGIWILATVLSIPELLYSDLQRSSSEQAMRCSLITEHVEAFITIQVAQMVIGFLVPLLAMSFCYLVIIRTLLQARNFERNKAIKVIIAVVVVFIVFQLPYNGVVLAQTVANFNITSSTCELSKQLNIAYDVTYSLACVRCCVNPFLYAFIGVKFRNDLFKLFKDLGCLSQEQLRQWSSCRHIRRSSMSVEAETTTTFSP

| Molecule | EC50, agonist activity in an Aequorin assay [1] | EC50, agonist activity in an Aequorin assay [2] |
| --- | --- | --- |
| recombinant native MIP-3β (from UniProt Q99731 22-98) (ligand) | 1.6 nM | – |
| biotinMIP-3β (human MIP-3β/CCL19 residues 1-77 with an additional Lys78 derivatised with Biotin) (from UniProt Q99731 22-98) (ligand) | 11 nM | – |
| native TECK (from UniProt O15444 24-150) (ligand) | – | 67.9 nM |
| B1 | – | 63.6 nM |
